Positions count from the first letter of the chain named.
How the values were obtained:
[1] = target: T1, human Nectin-4 expressed on cells (human, UniProt Q96NY8 32-510); test: flow cytometry on SUM185 cells, antibody at 10 ug/ml
T1 sequence: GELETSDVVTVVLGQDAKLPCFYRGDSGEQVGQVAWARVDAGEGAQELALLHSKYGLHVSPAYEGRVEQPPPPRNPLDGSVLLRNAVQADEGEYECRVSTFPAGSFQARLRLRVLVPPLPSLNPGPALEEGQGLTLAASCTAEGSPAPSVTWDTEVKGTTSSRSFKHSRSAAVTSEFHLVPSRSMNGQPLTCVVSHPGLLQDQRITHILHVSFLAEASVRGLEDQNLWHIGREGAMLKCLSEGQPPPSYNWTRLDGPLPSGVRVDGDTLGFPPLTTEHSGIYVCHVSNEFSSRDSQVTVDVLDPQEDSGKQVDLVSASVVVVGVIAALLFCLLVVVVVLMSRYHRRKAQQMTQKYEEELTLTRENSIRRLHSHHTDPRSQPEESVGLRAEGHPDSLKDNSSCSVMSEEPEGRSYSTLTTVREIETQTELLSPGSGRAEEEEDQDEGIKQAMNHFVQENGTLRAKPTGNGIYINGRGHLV

[2] = target: T1, human Nectin-4 expressed on cells; test: flow cytometry on SUM190 cells, antibody at 10 ug/ml
[3] = target: T1, human Nectin-4 expressed on cells; test: flow cytometry (FL2-A) on SUM185 human breast cancer cells; unstained cells 71.5
[4] = target: HER2 on human breast cancer tumor cells (human) (UniProt P04626); test: as above
[5] = test system: MC-38 cells endogenously expressing MDR1 P-glycoprotein (Pgp), engineered to express Nectin-4; test: In vitro efficacy of ADCs in Pgp-expressing cancer model (CTG); format: cell-based, murine; settings: for anti-tumor activity in presence or absence of the Pgp inhibitor cyclosporine: 150 nM ADC, normalized to control antibody, cyclosporin A 5 μM, FIG. 10B
Description: MC-38 cells that endogenously express MDR1 P-glycoprotein (Pgp) were engineered to express Nectin-4 and cultured in DMEM+10% FBS. Cells were either treated with vehicle (DSMO) or with cyclosporin A (5 μM, stock solution in DMSO) known to act as an inhibitor of Pgp, in presence of ADCs.
The ADCs and the equivalent isotype control ADCs were used at dose range from 150 to 2.3 10^−3 nM. After five days of co-incubation with cells, cell viability was measured by addition of Cell Titer Glo™ (CTG) substrate. Luminescence vs. Ab concentration was plotted.

UC (patients) = settings: EV-201 Phase 2 study; cited from earlier work
SUM185 cells = test: Comparative in vitro killing of SUM185 cells (model of anti-HER2 resistance), CTG; format: cell-based, human; settings: 5 days, 5E7 ADC DAR=8, PADCEV DAR=4, FIG. 5
Description: This setting was used as a model of anti-HER2 resistance. SUM185 cells express Nectin-4 at relatively high levels, with Nectin-4 expression levels about twice that of HER2 in these cells (see Example 1). In this experiment, the 5E7 antibody was tested as an ADC having DAR=8 along with PADCEV™ (DAR=4, specification for FDA-approved PADCEV™) and control antibodies all conjugated with the same toxin at equivalent drug to antibody ratios. 5E7 was conjugated with a camptothecin analogue Dxd via the ggfg-Dxd linker.
Briefly, dose-ranges of each tested Ab (starting point 150 nM, dilution factor 2 for 3 points, then 5 for 5 points) were incubated on cells for 5 days before cell viability measurement by addition of CTG substrate. Luminescence vs. Ab concentration was plotted on graph.
For each ADC, a concentration range of ADC was incubated with nectin-4-expressing cells. After incubation, CTG substrate was added at 1:1 ratio and the luminescent signal was read with a plate reader (Enspire), allowing quantification of the ATP present (indicator of metabolically active cells) which was proportional to cell viability.

[6] = target: T2, rat Nectin-4 protein expressed on CHO cells (rat, UniProt Q8R007 31-508 (mouse entry)); test: flow cytometry on CHO cells expressing rat Nectin-4, Median MFI (PE)
T2 construct: no cleavage site is stated; also called Rat Nectin-4 V5
T2 chain: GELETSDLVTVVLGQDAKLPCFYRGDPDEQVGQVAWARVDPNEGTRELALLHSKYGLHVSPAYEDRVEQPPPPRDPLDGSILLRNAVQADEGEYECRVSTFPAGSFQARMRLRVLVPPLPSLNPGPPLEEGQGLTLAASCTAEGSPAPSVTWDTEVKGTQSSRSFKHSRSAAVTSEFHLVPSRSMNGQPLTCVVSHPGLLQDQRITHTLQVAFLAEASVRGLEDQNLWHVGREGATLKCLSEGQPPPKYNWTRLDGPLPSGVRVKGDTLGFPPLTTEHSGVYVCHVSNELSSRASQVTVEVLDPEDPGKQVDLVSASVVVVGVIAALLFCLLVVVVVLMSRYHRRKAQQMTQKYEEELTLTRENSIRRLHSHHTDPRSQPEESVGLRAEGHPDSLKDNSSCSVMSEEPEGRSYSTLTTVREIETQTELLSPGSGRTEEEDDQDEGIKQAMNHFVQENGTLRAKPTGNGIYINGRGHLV
Description: (§1) Anti-Nectin-4 antibodies were tested by flow cytometry for binding to different CHO cell lines made to express respectively the mouse, cynomolgus and rat Nectin-4 protein (including an N-terminal V5 tag not shown in the sequences below).

[7] = target: T3, cynomolgus Nectin-4 protein expressed on CHO cells (cynomolgus, UniProt Q96NY8 32-510 (human entry)); test: flow cytometry on CHO cells expressing cynomolgus Nectin-4, Median MFI (PE)
T3 construct: also called Cyno Nectin-4 V5
T3 chain: T1 sequence with V39A, I230V, A437T
Description: as §1

[8] = test system: SUM190 cells subcutaneously engrafted in CB17-SCID mice; test: In vivo efficacy of Dxd and exatecan ADCs in SUM190 model; design: species or system mouse; settings: single i.v. injection 10 mg/kg; FIG. 9C
Description: Human breast cancer cell line SUM190PT was cultured in the following cell culture medium containing Ham's F12, FBS 1 g/L, HEPES 10 mM, Ethanolamine 5 mM, Insulin 5 μg/mL, Hydrocortisone 1 μg/mL, Apo-Transferrin 5 μg/mL, Triiodo Thyronine (T3) 6.7 ng/ml, Sodium selenite 8.7 ng/ml.
Immunodeficient CB17-SCID mice were used at 7 to 8 weeks of age. […] The ggfg-Dxd linker will release Dxd (deruxtecan) upon cleavage and the PEG (8U)-Val-Ala-PAB-Exatecan linker will release exatecan upon cleavage.
SUM190 cells were subcutaneously engrafted in CB17-SCID immunodeficient mice at the dose of 0.5 million in 100 μl of Matrigel containing growth factor diluted at ½ in PBS. At day 21, when tumors reached a mean volume at 146.9±63.2 mm^3 or 213.2±77.5 mm^3 depending on the experiment, mice were randomized into groups of 8 or 9 mice depending on the experiment and treated intravenously with a single injection of 3 or 10 mg/kg body weight ADC or PBS as control. Tumor growths were followed twice a week. Kaplan Meier survival curves were established by using GraphPad Prism V7 software according to the following criteria: when the tumor volume reached 1500 mm^3, mice were euthanized and considered dead on the day of sacrifice (D). When tumors were highly necrotic, mice were euthanized and considered dead on the same day (D).

## anti-Nectin-4 antibody (ASG-22ME modified as a human IgG1 isotype containing a N297Q mutation)
[1]
  MFI: 4330 MFI
[2]
  MFI: 991 MFI

## Control Antibody
[3]
  Median of fluo.: 94.5
[4]
  Median of fluo.: 94.5

## PADCEV™
[5]
  anti-tumor activity in presence or absence of the Pgp inhibitor cyclosporine: negatively affected by Pgp
UC (patients)
  CR (complete response rate): 12%
  ORR (objective response rate): 44%
  discontinuation due to clinical symptoms: 5%
  discontinuation due to progressive disease as assessed by RECIST: 48%
  patients that discontinued experienced adverse events, notably neuropathy: 18%
SUM185 cells
  killing of SUM185 cells / reduction of cell viability: able to kill the SUM185 more efficiently than ENHERTU™

B1: enfortumab (antibody, V domains shown)
VH: EVQLVESGGGLVQPGGSLRLSCAASGFTFSSYNMNWVRQAPGKGLEWVSYISSSSSTIYYADSVKGRFTISRDNAKNSLSLQMNSLRDEDTAVYYCARAYYYGMDVWGQGTTVTVSS
VL: DIQMTQSPSSVSASVGDRVTITCRASQGISGWLAWYQQKPGKAPKFLIYAASTLQSGVPSRFSGSGSGTDFTLTISSLQPEDFATYYCQQANSFPPTFGGGTKVEIKR
[6]
  EC50 (read off the curve): ~0.2 µg/mL
[7]
  EC50 (read off the curve): ~0.08 µg/mL

B2: 5E7-exatecan: 5E7 conjugated to the exatecan linker PEG (8U)-Val-Ala-PAB-Exatecan (drawing 79), DAR=8 (conjugate)
VH: QVQLQQPGAELVKPGASVKLSCKASGYIFTSYWMHWVKQRPGQGLEWIGEIDPSDSYTNYNQKFKGKATLTLDKSSSTTYMQLSSLTSEDSAVYYCVRGYGNYGDYWGQGTTLTVSSASTKGP
VL: DVVMTQAAFSNPVTLGTSASISCRSSKSLLHSNGITYLYWYLQKPGQSPQLLIYQMSNLASGVPDRFSSSGSGTDFTLRISRVEAEDVGVYYCAQNLELPWTFGGGTKLEIKRTVAAP
[8]
  efficiency in controlling tumor growth in mice: higher efficiency in controlling tumor growth in mice compared 5E7 conjugated with ggfg-Dxd
[5]
  anti-tumor activity in presence or absence of the Pgp inhibitor cyclosporine: highly effective
[5]; MC-38 Pgp/Nectin-4 cells, 5 days, setting of drug resistance, FIG. 10A
  decrease of cell viability (luminescence): highly potent to decrease cell viability

— patent US20250297004A1, “NECTIN-4 BINDING AGENTS” (INNATE PHARMA, priority 2022, published 2025)
